These results are taken from paper PMC6013494, “Dual recognition of H3K4me3 and H3K27me3 by a plant histone reader SHL” (Nature Communications, 2018).

Sequences and labels used below:
B1: SHL from Populus trichocarpa (PtSHL), wild type (natural protein)
chain: SMAKAKAPRRTLDSYTVKPINKTVKPGDCVLMRPSDPSKPSYVAKIERIESDGRGPNVRVRVRWYYRPEESIGGRRQFHGSKEVFLSDHYDTQSADTIEGKCMVHSFKNYTKLDAVGNDDFFCRFEYNSSTGAFNPDRVAVYCKCEMPYNPDDLMVQCEGCSDWFHPACIEMSAEEAKRLDHFFCENCSSEGQKKLQNSHNTRQSDAKAETKRRRR

For assay [1], the target named is SHL from Populus trichocarpa (PtSHL), wild type (Populus trichocarpa). As to the kind of experiment: ITC; PtSHL pre-saturated with 2-fold excess H3(1-15)K4me3 peptide, titrated by H3(20-36)K27me3 peptide; 20 °C, 100 mM NaCl, 20 mM Tris-HCl pH 8.0.
Assay [2] shares this target. Briefly: ITC; Microcal PEAQ-ITC, 20 °C; 100 mM NaCl, 20 mM Tris-HCl pH 8.0; protein titrated by peptide.
In assay [3] the target is Arabidopsis SHORT LIFE (AtSHL), full length, tag removed (Arabidopsis) (UniProt Q9FEN9). The assay is described as above.
The target of another assay is PtSHL W63A. As to the kind of experiment: ITC, PtSHL W63A. Also noted: species or system Populus trichocarpa. The conditions noted are these: 20 °C, pH 8.0, NDB, no detectable binding. On the procedure:
(§1) The full-length AtSHL was cloned into a pET-Sumo vector to fuse a hexahistidine-sumo tag to the target protein. The plasmids were transformed into Escherichia coli strain BL21(DE3) RIL (Stratagene). The protein expression was induced by adding IPTG to a final concentration of 0.2 mM upon the OD600 of cell culture reaching to 0.7, followed by overnight induction at 20 °C. The recombinant protein was purified using a HisTrap column (GE Healthcare). The hexahistidine-sumo tag was cleaved by ulp1 protease and removed by a second step HisTrap column. The AtSHL protein was further purified using a Superdex G200 column (GE Healcare). The PtSHL was cloned, expressed, and purified using the same strategy as AtSHL. All mutant versions of SHL were generated using a PCR based method and expressed and purified using the same protocol as wild type SHL protein. The peptides were purchased from the GL Biochem Company (Shanghai).
(§2) The interaction between SHL and histone peptides was monitored on a Microcal PEAQ-ITC instrument (Malvern) at 20 °C. An additional artificial tyrosine residue was added to the C-terminus of the peptide in the ITC experiment for accurately measuring the concentration of peptide by OD280. The protein was dialyzed against a buffer of 100 mM NaCl and 20 mM Tris-HCl, pH 8.0 for 3 h and the lyophilized peptides were dissolved into the same buffer. […]

The target in a further assay is T1, PtSHL + H3K4me3 (Populus trichocarpa, UniProt B9H0V2).
T1 sequence (B9H0V2 1-215): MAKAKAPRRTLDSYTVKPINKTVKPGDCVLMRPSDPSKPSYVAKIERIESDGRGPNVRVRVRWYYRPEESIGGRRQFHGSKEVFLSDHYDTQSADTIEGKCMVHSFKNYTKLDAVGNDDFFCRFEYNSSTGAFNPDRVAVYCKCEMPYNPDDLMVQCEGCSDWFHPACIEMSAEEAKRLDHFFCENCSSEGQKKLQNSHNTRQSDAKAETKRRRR
As to the kind of experiment: Competitive ITC, PtSHL pre-saturated with 2-fold excess H3(1-15)K4me3. The conditions noted are these: ITC binding stoichiometry. On the procedure:
To further investigate the binding mechanism of H3K4me3 and H3K27me3 by the two domains of SHL, we performed competitive binding assays.
The interaction between SHL and histone peptides was monitored on a Microcal PEAQ-ITC instrument (Malvern) at 20 °C. An additional artificial tyrosine residue was added to the C-terminus of the peptide in the ITC experiment for accurately measuring the concentration of peptide by OD280. The protein was dialyzed against a buffer of 100 mM NaCl and 20 mM Tris-HCl, pH 8.0 for 3 h and the lyophilized peptides were dissolved into the same buffer. The titration data were fit using the program Origin 7.0.

Assay [4] relates to full-length AtSHL. As to the kind of experiment: Histone peptide pulldown, full-length AtSHL. Type of assay: binding, Arabidopsis thaliana. As to conditions: biotinylated histone peptides, 2 μg GST-tagged SHL, 50 mM Tris-HCl, pH 8.0, 300 mM NaCl, 3 h at 4 °C; anti-GST immunoblot. On the procedure:
The […] biotinylated histone peptides were first incubated with 62.5 μl magnetic streptavidin bead slurry (NEB) pre-washed with 1 ml peptide binding buffer (50 mM Tris-HCl, pH 8.0, 300 mM NaCl, 0.1% Nonidet P-40) for 1 h at 4 °C. The peptide-bound beads were washed twice with 1 ml of peptide binding buffer and then incubated with 2 μg GST-tagged SHL proteins in the peptide binding buffer for 3 h at 4 °C. After washing three times with binding buffer, protein-bead complex was boiled in 1XSDS loading buffer (50 mM Tris-HCl, pH 6.8, 2% sodium dodecyl sulfate, 0.01% bromophenol blue, 2 mM dithiothreitol and 2 mM β-mercaptoethanol), subjected to SDS-PAGE gel, and detected with an anti-GST antibody (CAB4169, Thermo Fisher, 1:3000). The raw images of the western blots can be found in Supplementary Fig. 6a.

The next assay addresses PtSHL. Briefly: ITC, PtSHL (wild type) with histone peptides. Details: species or system Populus trichocarpa. The conditions noted are these: Microcal PEAQ-ITC, 20 °C, 100 mM NaCl, 20 mM Tris-HCl, pH 8.0, peptide with additional C-terminal tyrosine, PtSHL WT, NDB, no detectable binding. On the procedure: as §1, §2
Another assay deals with PtSHL H88A. As to the kind of experiment: ITC, PtSHL H88A. Also noted: species or system Populus trichocarpa. As to conditions: 20 °C, pH 8.0, NDB, no detectable binding. On the procedure: as §1, §2
Assay [5] deals with full-length AtSHL. Briefly: Histone peptide microarray, full-length AtSHL. The class given is binding, Arabidopsis thaliana. As to conditions: 500 nM GST-tagged SHL, 50 mM HEPES, pH 7.5, 50 mM NaCl, RT, 2 h; anti-GST, fluorescence 635 nm; average of three replicate spots. On the procedure: Peptide microarray assay was performed as following a previous study. Specifically, the peptide array slide was blocked with blocking solution (1 × PBS, 0.05% Tween-20 pH 7.4, 1% BSA) at 4 °C overnight. After washing three times with 1 ml TTBS buffer (10 mM Tris-HCl, pH 7.5, 150 mM NaCl, 0.05% Tween-20), the slide was incubated with 500 nM GST-tagged recombinant SHL in 1 ml binding buffer (50 mM HEPES, pH 7.5, 50 mM NaCl, 5% glycerol, 0.4% BSA, 2 mM DTT) at RT for 2 h. The slide was then washed with TTBS three times and incubated with an anti-GST antibody (Thermo Fisher, CAB4169, 1:3000 dilution) in TBS with 1% BSA for 1 h at RT. After washing with TTBS three times, the slide was incubated with an anti-rabbit IRDye 650 secondary antibody (LI-COR, P/N 926-65020, 1:5000 dilution) in 1 ml TBS buffer with 1% BSA for 1 h. The slide was washed with TTBS three times, dried by centrifugation, and imaged at dual wavelengths of 532 and 635 nm on Axon GenePix 4000B (Molecular Devices). The laser power was set to 100%, with automatic gain adjustment (0.05% saturation tolerance) for dual photomultipliers. […] Signal intensities were quantified by GenePix Pro 6.1 software (Molecular Devices). […] For each peptide species, an average was calculated from three replicate spots. […]

The next assay concerns the target PtSHL Y41A. Briefly: ITC, PtSHL Y41A. Details: species or system Populus trichocarpa. As to conditions: 20 °C, pH 8.0, NDB, no detectable binding. On the procedure:
as §1, §2

The next assay concerns the target PtSHL D90A. As to the kind of experiment: ITC, PtSHL D90A. Also noted: species or system Populus trichocarpa. As to conditions: 20 °C, pH 8.0, NDB, no detectable binding. On the procedure: as §1, §2
Another assay has as its target PtSHL Y65A. Briefly: ITC, PtSHL Y65A. Details: species or system Populus trichocarpa. As to conditions: 20 °C, pH 8.0, NDB, no detectable binding. On the procedure: as §1, §2
In assay [6] the target is SHL from Populus trichocarpa (PtSHL), wild type (Populus trichocarpa). As to the kind of experiment: ITC; PtSHL pre-saturated with 2-fold excess H3(20-36)K27me3 peptide, titrated by H3(1-15)K4me3 peptide; 20 °C, 100 mM NaCl, 20 mM Tris-HCl pH 8.0.
The target of another assay is T2, H3K4me1 (Arabidopsis thaliana).
T2 chain: ARTK(Me)QTARKSTGGKAY
As to the kind of experiment: ITC.

The next assay addresses T3, H3K4me2 (Arabidopsis thaliana).
T3 chain: ARTK(Me2)QTARKSTGGKAY
As to the kind of experiment: ITC.

Another assay concerns the target T4, PtSHL Y148A (Populus trichocarpa).
T4 chain: T1 sequence (B9H0V2 1-215) with Y148A
Briefly: ITC.

In a further assay the target is T5, PtSHL Q156A (Populus trichocarpa).
T5 chain: T1 sequence (B9H0V2 1-215) with Q156A
Briefly: ITC.

The target of assay [7] is B1. Briefly: ITC.

Substitutions are numbered along the chain they refer to. “Also recorded” adds a separate entry of the source. No end group written: not given here. Me3 = trimethyl-lysine; Me2 = dimethyl-lysine

Arabidopsis SHORT LIFE (AtSHL), full length, tag removed (Arabidopsis), sequence (Q9FEN9 whole entry): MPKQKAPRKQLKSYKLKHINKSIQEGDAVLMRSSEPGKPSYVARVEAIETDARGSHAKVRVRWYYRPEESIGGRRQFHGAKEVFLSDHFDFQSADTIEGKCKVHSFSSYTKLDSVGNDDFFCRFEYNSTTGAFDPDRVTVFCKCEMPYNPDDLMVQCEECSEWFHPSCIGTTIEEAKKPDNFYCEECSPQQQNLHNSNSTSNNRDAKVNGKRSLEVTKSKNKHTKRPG

Consider “H3(20-36)K27me3 peptide with an additional C-terminal tyrosine (ITC)”, for which the Kd in assay [1] came out at 18.7 µM; in assay [2], 21.3 µM; in assay [3] it was 15.1 µM.

In assay [3], “H3K27me2 peptide with an additional C-terminal tyrosine (ITC)” showed a Kd of 30.8 µM.

In [3], “H3K27me1 peptide with an additional C-terminal tyrosine (ITC)” yielded a Kd of 78.3 µM.

For the molecule `CC(C)C[C@H](N)C(=O)N[C@@H](C)C(=O)N[C@H](C(=O)N[C@@H](CCCCN)C(=O)N[C@@H](C)C(=O)N[C@@H](C)C(=O)N[C@@H](CCCNC(=N)N)C(=O)N[C@@H](CCCC[N+](C)(C)C)C(=O)N[C@@H](CO)C(=O)N[C@@H](C)C(=O)N1CCC[C@H]1C(=O)N[C@@H](C)C(=O)N[C@H](C(=O)NCC(=O)NCC(=O)N[C@H](C(=O)N[C@@H](CCCCN)C(=O)N[C@@H](Cc1ccc(O)cc1)C(=O)O)C(C)C)[C@@H](C)O)[C@@H](C)O` [H3K27me3], the Kd entry is “NDB and abolished” on PtSHL W63A; 21.3 µM at PtSHL; “NDB and abolished” at PtSHL H88A; “NDB and abolished” on PtSHL Y41A; “NDB and abolished” on PtSHL D90A; “NDB and abolished” at PtSHL Y65A. Moreover, the N-value on PtSHL + H3K4me3 turned out to be 0.818. Moreover, the “binding in histone peptide pulldown” value in the assay with full-length AtSHL [4] was “capable of binding”. For the same molecule, in the assay on full-length AtSHL [5], the “binding on histone peptide microarray” value is “preferentially binds; also recorded: strong binding affinity”.

With “H3(1-15)K4me3 peptide with an additional C-terminal tyrosine (ITC)”, the dissociation constant Kd in [6] was 27.6 µM; in assay [2] it was 20.6 µM.

In assay [2], “H3(1-35)K4me3K27me3 peptide with an additional C-terminal tyrosine (ITC)” had a Kd of 16.9 µM and a stoichiometry N of 1.17.

On to B1, for which the Kd came to 67.1 µM with H3K4me1 and 23.9 µM with H3K4me2.

On to ARTK(Me3)QTARKSTGGKAY [H3(1-15)K4me3 peptide with an additional C-terminal tyrosine (ITC)], for which the Kd with PtSHL Y148A was found to be 44 µM; with PtSHL Q156A, 66.1 µM.

Turning to LATKAARK(Me)SAPATGGVKY [H3K27me1 peptide with an additional C-terminal tyrosine (ITC)], binding in assay [7] was put at a Kd of 58.1 µM.

In assay [7], LATKAARK(Me2)SAPATGGVKY [H3K27me2 peptide with an additional C-terminal tyrosine (ITC)] came in with a Kd of 28.9 µM.
